# Experimental data published in the supplement of paper PMC5998384.
# Key:
# HeLa Kyoto [1] = assay: thermal stability score vs G1/S (z-score of summed log2 fold changes over temperatures); higher = more thermally stable than in G1/S
# HeLa Kyoto [2] = assay: solubility in G1/S (NP-40 vs SDS abundance) (log2 ratio); higher = more soluble; conditions: cell cycle stage: G1/S
# HeLa Kyoto [3] = assay: solubility change mitosis vs G1/S (difference of NP-40 vs SDS log2 ratios) (log2 ratio difference); higher = more soluble in mitosis
# HeLa Kyoto [4] = assay: melting temperature (median over replicates), in situ; higher = more thermally stable
# [5] = cell cycle stage: early G1 (4.5 h after nocodazole release)
# 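Throughout, for melting temperature (median over replicates), in situ: HeLa Kyoto cells synchronized by double thymidine or nocodazole block, proteins quantified by TMT10plex mass spectrometry, three independent biological replicates.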
# 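Throughout, for solubility change mitosis vs G1/S (difference of NP-40 vs SDS log2 ratios): synchronized HeLa Kyoto cells (double thymidine block for G1/S, nocodazole release for mitosis), protein amounts in NP-40 versus SDS lysates quantified by mass spectrometry, three biological replicates.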
# 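Throughout, for solubility in G1/S (NP-40 vs SDS abundance): HeLa Kyoto cells arrested at G1/S by double thymidine block, proteins quantified by TMT10plex mass spectrometry in mild NP-40 versus SDS extracts, three biological replicates.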
# 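Throughout, for thermal stability score vs G1/S (z-score of summed log2 fold changes over temperatures): synchronized HeLa Kyoto cells, proteins quantified by TMT10plex mass spectrometry, three biological replicates, mitosis taken 0.5 h after nocodazole release, G1/S directly after double thymidine block.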
Sequence,thermal stability score (HeLa Kyoto [1]; [5]),thermal stability score (HeLa Kyoto [1]; cell cycle stage: mitosis),solubility in G1/S (log2) (HeLa Kyoto [2]),solubility change mitosis (log2) (HeLa Kyoto [3]),melting temperature (HeLa Kyoto [4]; cell cycle stage: G1/S),melting temperature (HeLa Kyoto [4]; cell cycle stage: mitosis)
MRSLGANMAAALRAAGVLLRDPLASSSWRVCQPWRWKSGAAAAAVTTETAQHAQGAKPQVQPQKRKPKTGILMLNMGGPETLGDVHDFLLRLFLDRDLMTLPIQNKLAPFIAKRRTPKIQEQYRRIGGGSPIKIWTSKQGEGMVKLLDELSPNTAPHKYYIGFRYVHPLTEEAIEEMERDGLERAIAFTQYPQYSCSTTGSSLNAIYRYYNQVGRKPTMKWSTIDRWPTHHLLIQCFADHILKELDHFPLEKRSEVVILFSAHSLPMSVVNRGDPYPQEVSATVQKVMERLEYCNPYRLVWQSKVGPMPWLGPQTDESIKGLCERGRKNILLVPIAFTSDHIETLYELDIEYSQVLAKECGVENIRRAESLNGNPLFSKALADLVHSHIQSNELCSKQLTLSCPLCVNPVCRETKSFFTSQQL [FECH],-0.37,-0.327,0.25,-0.0764,51.9 °C,53.4 °C
MENHKSNNKENITIVDISRKINQLPEAERNLLENGSVYVGLNAALCGLIANSLFRRILNVTKARIAAGLPMAGIPFLTTDLTYRCFVSFPLNTGDLDCETCTITRSGLTGLVIGGLYPVFLAIPVNGGLAARYQSALLPHKGNILSYWIRTSKPVFRKMLFPILLQTMFSAYLGSEQYKLLIKALQLSEPGKEIH [TMEM126A],-0.173,-0.978,0.245,-0.094,52.8 °C,52.4 °C
MRPEPGGCCCRRTVRANGCVANGEVRNGYVRSSAAAAAAAAAGQIHHVTQNGGLYKRPFNEAFEETPMLVAVLTYVGYGVLTLFGYLRDFLRYWRIEKCHHATEREEQKDFVSLYQDFENFYTRNLYMRIRDNWNRPICSVPGARVDIMERQSHDYNWSFKYTGNIIKGVINMGSYNYLGFARNTGSCQEAAAKVLEEYGAGVCSTRQEIGNLDKHEELEELVARFLGVEAAMAYGMGFATNSMNIPALVGKGCLILSDELNHASLVLGARLSGATIRIFKHNNMQSLEKLLKDAIVYGQPRTRRPWKKILILVEGIYSMEGSIVRLPEVIALKKKYKAYLYLDEAHSIGALGPTGRGVVEYFGLDPEDVDVMMGTFTKSFGASGGYIGGKKELIDYLRTHSHSAVYATSLSPPVVEQIITSMKCIMGQDGTSLGKECVQQLAENTRYFRRRLKEMGFIIYGNEDSPVVPLMLYMPAKIGAFGREMLKRNIGVVVVGFPATPIIESRARFCLSAAHTKEILDTALKEIDEVGDLLQLKYSRHRLVPLLDRPFDETTYEETED [SPTLC2],0.665,-0.386,0.00928,-0.16,53 °C,52.7 °C
MPPPQGDVTALFLGPPGLGKSALIAALCDKDVETLEAPEGRPDSGVPSLRAAGPGLFLGELSCPPAAPGPWAAEANVLVLVLPGPEGNGEPLAPALGEAALAALARGTPLLAVRNLRPGDSQTAAQARDQTAALLNSAGLGAADLFVLPANCGSSDGCEELERLRAALQSQAEALRRLLPPAQDGFEVLGAAELEAVREAFETGGLEAALSWVRSGLERLGSARLDLAVAGKADVGLVVDMLLGLDPGDPGAAPASVPTAPTPFPAPERPNVVLWTVPLGHTGTATTAAAASHPTHYDALILVTPGAPTEKDWAQVQALLLPDAPLVCVRTDGEGEDPECLGEGKMENPKGESLKNAGGGGLENALSKGREKCSAGSQKAGSGEGPGKAGSEGLQQVVGMKKSGGGDSERAAALSPEDETWEVLEEAPPPVFPLRPGGLPGLCEWLRRALPPAQAGALLLALPPASPSAARTKAAALRAGAWRPALLASLAAAAAPLPGLGWACDVALLRGQLAEWRRGLGLEPTALARRERALGLASGELAARAHFPGPVTRAEVEARLGAWAGEGTAGGAALGALSFLWPAGGAAATGGLGYRAAHGVLLQALDEMRADAEAVLAPPEPAQ [IRGQ],-0.649,0.0432,0.437,0.141,51.3 °C,51.3 °C
MEMKKKINLELRNRSPEEVTELVLDNCLCVNGEIEGLNDTFKELEFLSMANVELSSLARLPSLNKLRKLELSDNIISGGLEVLAEKCPNLTYLNLSGNKIKDLSTVEALQNLKNLKSLDLFNCEITNLEDYRESIFELLQQITYLDGFDQEDNEAPDSEEEDDEDGDEDDEEEEENEAGPPEGYEEEEEEEEEEDEDEDEDEDEAGSELGEGEEEVGLSYLMKEEIQDEEDDDDYVEEGEEEEEEEEGGLRGEKRKRDAEDDGEEEDD [ANP32E],2.17,4.82,-0.46,0.1,46.5 °C,50.1 °C
MTPLCPRPALCYHFLTSLLRSAMQNARGARQRAEAAVLSGPGPPLGRAAQHGIPRPLSSAGRLSQGCRGASTVGAAGWKGELPKAGGSPAPGPETPAISPSKRARPAEVGGMQLRFARLSEHATAPTRGSARAAGYDLYSAYDYTIPPMEKAVVKTDIQIALPSGCYGRVAPRSGLAAKHFIDVGAGVIDEDYRGNVGVVLFNFGKEKFEVKKGDRIAQLICERIFYPEIEEVQALDDTERGSGGFGSTGKN [DUT],0.243,-0.204,0.483,-0.0703,53.2 °C,53.5 °C
